{
  "source": "patent US7960155B1",
  "about": "“Cytochrome p450 monooxygenases and their use for oxidizing organic compounds” (BASF Aktiengesellschaft, priority 1999, dated 2011)",
  "molecules": {"B1": {"name": "WT: wild-type cytochrome P450 monooxygenase BM-3 from Bacillus megaterium (SEQ ID NO:2) (protein, listed as Bacillus megaterium)", "chain": "TIKEMPQPKTFGELKNLPLLNTDKPVQALMKIADELGEIFKFEAPGRVTRYLSSQRLIKEACDESRFDKNLSQALKFVRDFAGDGLFTSWTHEKNWKKAHNILLPSFSQQAMKGYHAMMVDIAVQLVQKWERLNADEHIEVPEDMTRLTLDTIGLCGFNYRFNSFYRDQPHPFITSMVRALDEAMNKLQRANPDDPAYDENKRQFQEDIKVMNDLVDKIIADRKASGEQSDDLLTHMLNGKDPETGEPLDDENIRYQIITFLIAGHETTSGLLSFALYFLVKNPHVLQKAAEEAARVLVDPVPSYKQVKQLKYVGMVLNEALRLWPTAPAFSLYAKEDTVLGGEYPLEKGDELMVLIPQLHRDKTIWGDDVEEFRPERFENPSAIPQHAFKPFGNGQRACIGQQFALHEATLVLGMMLKHFDFEDHTNYELDIKETLTLKPEGFVVKAKSKKIPLGGIPSPSTEQSAKKVRKKAENAHNTPLLVLYGSNMGTAEGTARDLADIAMSKGFAPQVATLDSHAGNLPREGAVLIVTASYNGHPPDNAKQFVDWLDQASADEVKGVRYSVFGCGDKNWATTYQKVPAFIDETLAAKGAENIADRGEADASDDFEGTYEEWREHMWSDVAAYFNLDIENSEDNKSTLSLQFVDSAADMPLAKMHGAFSTNVVASKELQQPGSARSTRHLEIELPKEASYQEGDHLGVIPRNYEGIVNRVTARFGLDASQQIRLEAEEEKLAHLPLAKTVSVEELLQYVELQDPVTRTQLRAMAAKTVCPPHKVELEALLEKQAYKEQVLAKRLTMLELLEKYPACEMKFSEFIALLPSIRPRYYSISSSPRVDEKQASITVSVVSGEAWSGYGEYKGIASNYLAELQEGDTITCFISTPQSEFTLPKDPETPLIMVGPGTGVAPFRGFVQARKQLKEQGQSLGEAHLYFGCRSPHEDYLYQEELENAQSEGIITLHTAFSRMPNQPKTYVQHVMEQDGKKLIELLDQGAHFYICGDGSQMAPAVEATLMKSYADVHQVSEADARLWLQQLEEKGRYAKDVWAG"}},
  "tested_on": "blue pigment (indigo/indirubin) production",
  "details": "2-liter flask containing 300 ml of TB medium for the triple mutant",
  "data": [
    {"molecule": "B1", "values": [
      {"measurement": "blue pigment production in culture", "value": "does not have the ability to produce the blue indigo-containing pigment"}
    ]}
  ]
}
